Laboratory results as given in PMC2584968.

Target: three-disulphide variant of core gp120 (HXBc2) (HIV-1 (HXBc2))
Assay: SPR

Question: For CD4-induced antibody 17b, which fold increase in on-rate (through stabilization) is on record?
Answer: Its fold increase in on-rate (through stabilization) is 95 fold.
